Measured values published in article PMC7269035.

Molecular target: LARP1 DM15 F844Y/R847E (FYRE) (Homo sapiens, UniProt Q6PKG0-3 796-946, F844Y;R847E)
Test: EMSA

B1: m7Gppp-non-TOP (+1G) RPS6 20-mer (ssRNA)
RNA: GCUCUUUUCCGUGGCGCCUC
modifications: 5' m7Gppp cap (vaccinia capping enzyme)
B1: binds.
